# From article PMC7221254
# B1: hly promoter 40 bp (dsDNA)
# DNA 1: CTTTTATGTTGAGGCATTAACATTTGTTAACGACGATAAA
# DNA 2: TTTATCGTCGTTAACAAATGTTAATGCCTCAACATAAAAG
# B2: actA promoter 40 bp (dsDNA)
# DNA 1: AGTTGGGGTTAACTGATTAACAAATGTTAGAGAAAAATTA
# DNA 2: TAATTTTTCTCTAACATTTGTTAATCAGTTAACCCCAACT
# B3: hpt promoter 40 bp (dsDNA)
# DNA 1: TTTTGTTTTCTGCATGATAACAAGTGTTAATGACGGAAAG
# DNA 2: CTTTCCGTCATTAACACTTGTTATCATGCAGAAAACAAAA
# B4: hly PrfA box 30 bp (dsDNA)
# DNA 1: TTGAGGCATTAACATTTGTTAACGACGATA
# DNA 2: TATCGTCGTTAACAAATGTTAATGCCTCAA
# Experiments:
# [1] = biological target: T1, PrfA L140F (Listeria monocytogenes, UniProt P22262 1-237, L140F); experiment: SPR; settings: protein: recombinant; tags: His6 removed by TEV, leaves N-terminal GA; chain copies: 2; label: 5'-biotin on strand 1; blunt
# [2] = biological target: PrfA WT (Listeria monocytogenes, UniProt P22262 1-237); experiment: SPR; settings: protein: recombinant; tags: His6-TEV vector pET His1a; chain copies: 2; label: 5'-biotin on strand 1; blunt
# [3] = biological target: T2, PrfA A218G (Listeria monocytogenes, UniProt P22262 1-237, A218G); experiment: SPR; settings: protein: recombinant; tags: His6 removed by TEV, leaves N-terminal GA; chain copies: 2; label: 5'-biotin on strand 1; blunt
# [4] = biological target: T3, PrfA L140H (Listeria monocytogenes, UniProt P22262 1-237, L140H); experiment: SPR; settings: protein: recombinant; tags: His6 removed by TEV, leaves N-terminal GA; chain copies: 2; label: 5'-biotin on strand 1; blunt
# [5] = biological target: T1, PrfA L140F; experiment: crystal structure; PDB probably one of 6QWF/6QWH/6QWK/6QWM; assignment not in material; settings: protein: recombinant; tags: His6 removed by TEV, leaves N-terminal GA; chain copies: 2; blunt
# [6] = biological target: T2, PrfA A218G; experiment: as above; settings: protein: recombinant; tags: His6 removed by TEV, leaves N-terminal GA; chain copies: 2; blunt
# [7] = biological target: T3, PrfA L140H; experiment: as above; settings: protein: recombinant; tags: His6 removed by TEV, leaves N-terminal GA; chain copies: 2; blunt
Binder,Kd [1] [nM],Kd [2] [nM],Kd [3] [nM],Kd [4] [nM],binding result [5],binding result [6],binding result [7]
B1,15,110,4,10,,,
B2,95,690,27,85,,,
B3,270,1040,55,210,,,
B4,,,,,binds,binds,binds
